In assay [1] the target is T1, human FcgRIIb (human).
T1 chain: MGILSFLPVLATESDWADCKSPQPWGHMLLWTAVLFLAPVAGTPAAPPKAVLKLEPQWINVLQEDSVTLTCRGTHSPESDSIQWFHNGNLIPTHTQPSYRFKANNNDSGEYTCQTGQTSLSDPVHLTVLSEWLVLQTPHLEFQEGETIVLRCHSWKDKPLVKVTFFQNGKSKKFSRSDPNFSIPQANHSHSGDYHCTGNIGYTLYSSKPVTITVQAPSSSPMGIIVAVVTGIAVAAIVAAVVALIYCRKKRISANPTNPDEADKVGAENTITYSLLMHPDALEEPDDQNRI
The assay can be described thus: SPR.

Assay [2] has as its target T1, human FcgRIIb. The assay can be described thus: SPR.
The target in a further assay is human FcgRIIIa(V) (human). Briefly: SPR.
human FcgRIIIa(V) (human), sequence (chain, as listed by the source): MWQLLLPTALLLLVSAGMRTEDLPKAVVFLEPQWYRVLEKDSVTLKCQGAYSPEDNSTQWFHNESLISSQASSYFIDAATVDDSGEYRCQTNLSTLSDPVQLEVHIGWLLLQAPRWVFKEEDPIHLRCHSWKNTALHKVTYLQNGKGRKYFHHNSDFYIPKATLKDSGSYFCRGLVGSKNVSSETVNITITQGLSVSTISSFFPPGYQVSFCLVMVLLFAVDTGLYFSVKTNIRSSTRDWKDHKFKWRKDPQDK
Assay [3] has as its target T1, human FcgRIIb. Briefly: SPR.
The target in a further assay is human FcgRIa (human). The assay can be described thus: SPR.
human FcgRIa (human), sequence (chain, as listed by the source): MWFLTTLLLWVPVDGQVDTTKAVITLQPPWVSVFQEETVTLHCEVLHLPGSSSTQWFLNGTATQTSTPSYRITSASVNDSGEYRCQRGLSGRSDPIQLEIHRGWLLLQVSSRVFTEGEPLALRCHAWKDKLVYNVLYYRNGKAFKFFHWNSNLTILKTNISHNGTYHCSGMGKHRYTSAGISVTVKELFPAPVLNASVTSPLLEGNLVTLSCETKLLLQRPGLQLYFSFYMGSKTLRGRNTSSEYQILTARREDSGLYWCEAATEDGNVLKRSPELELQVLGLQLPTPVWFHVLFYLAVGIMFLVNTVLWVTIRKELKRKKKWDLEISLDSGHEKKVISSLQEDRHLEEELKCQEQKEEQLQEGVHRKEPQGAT
Another assay has as its target T2, human FcgRIIa(R) (human).
T2 chain: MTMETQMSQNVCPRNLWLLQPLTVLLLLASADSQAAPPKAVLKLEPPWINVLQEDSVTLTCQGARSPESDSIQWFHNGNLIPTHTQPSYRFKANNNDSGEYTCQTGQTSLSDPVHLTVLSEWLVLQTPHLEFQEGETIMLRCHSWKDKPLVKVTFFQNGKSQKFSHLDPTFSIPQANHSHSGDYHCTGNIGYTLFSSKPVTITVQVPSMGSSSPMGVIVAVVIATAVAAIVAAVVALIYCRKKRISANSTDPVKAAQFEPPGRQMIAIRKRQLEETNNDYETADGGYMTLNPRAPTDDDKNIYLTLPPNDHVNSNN
Briefly: SPR.

Assay [4] addresses human FcRn (with beta2-microglobulin) (human). Briefly: SPR, pH 7.0.
Assay [5] shares this target. Briefly: SPR, pH 7.0. The source holds these as a separate data set.
Assay [6] shares this target. The assay can be described thus: SPR, pH 7.0. This is another data set of the same source.

Like-named read-outs stand apart in the source and are kept apart here.

human FcRn (with beta2-microglobulin) (human), sequence (chain, as listed by the source, chain 1 of 2): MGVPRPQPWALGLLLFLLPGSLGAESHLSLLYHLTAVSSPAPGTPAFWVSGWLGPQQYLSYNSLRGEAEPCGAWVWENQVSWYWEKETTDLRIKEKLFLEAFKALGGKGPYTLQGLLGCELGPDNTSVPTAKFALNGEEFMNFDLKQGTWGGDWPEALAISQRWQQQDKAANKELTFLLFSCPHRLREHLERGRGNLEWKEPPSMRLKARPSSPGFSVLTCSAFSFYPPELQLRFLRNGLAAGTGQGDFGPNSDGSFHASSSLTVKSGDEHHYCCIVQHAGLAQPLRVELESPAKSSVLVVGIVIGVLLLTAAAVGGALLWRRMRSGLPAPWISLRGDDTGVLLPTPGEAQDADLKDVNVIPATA
human FcRn (with beta2-microglobulin) (human), sequence (chain, as listed by the source, chain 2 of 2): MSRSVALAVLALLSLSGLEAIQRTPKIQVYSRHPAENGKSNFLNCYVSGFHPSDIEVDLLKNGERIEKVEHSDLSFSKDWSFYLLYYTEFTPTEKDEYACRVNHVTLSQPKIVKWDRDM

B1: IgG1-v1 (antibody)
chain 1: not shown
chain 2: DIQMTQSPSSLSASVGDRVTITCRASQDISSYLNWYQQKPGKAPKLLIYYTSRLHSGVPSRFSGSGSGTDFTFTISSLQPEDIATYYCQQGNTLPYTFGQGTKVEIK
In the case of B1, the Kd in the assay with human FcgRIIb [1] and with human FcgRIIb [2] was 1100 nM throughout.

B2: IgG1-v4 (antibody)
chain 1: not shown
chain 2: DIQMTQSPSSLSASVGDRVTITCRASQDISSYLNWYQQKPGKAPKLLIYYTSRLHSGVPSRFSGSGSGTDFTFTISSLQPEDIATYYCQQGNTLPYTFGQGTKVEIK
With B2, in the assay with human FcgRIIb [2], the Kd is 11000 nM.

B3: IgG1-v5 (antibody)
chain 1: QVQLQESGPGLVKPSETLSLTCAVSGHSISHDHAWSWVRQPPGEGLEWIGFISYSGITNYNPSLQGRVTISRDNSKNTLYLQMNSLRAEDTAVYYCARSLARTTAMDYWGEGTLVTVSSASTKGPSVFPLAPSSKSTSGGTAALGCLVKDYFPEPVTVSWNSGALTSGVHTFPAVLQSSGLYSLSSVVTVPSSSLGTQTYICNVNHKPSNTKVDKKVEPKSCDKTHTCPPCPAPELLGGDSVFLFPPKPKDTLMISRTPEVTCVVVDVEHEDPEVKFNWYVDGVEVHNAKTKPREEQYNSTYRVVSVLTVLHQDWLNGKEYKCKVSNKAFPAPIEKTISKAKGQPREPQVYTLPPSRDELTKNQVSLTCLVKGFYPSDIAVEWESNGQPENNYKTTPPVLDSDGSFFLYSKLTVDKSRWQQGNVFSCSVMHEALHNHYTQKSLSLSP
chain 2: DIQMTQSPSSLSASVGDRVTITCRASQDISSYLNWYQQKPGKAPKLLIYYTSRLHSGVPSRFSGSGSGTDFTFTISSLQPEDIATYYCQQGNTLPYTFGQGTKVEIK
For B3, the Kd with human FcgRIIb [1] was 450 nM.

B4: IgG1-v3 (antibody)
chain 1: not shown
chain 2: DIQMTQSPSSLSASVGDRVTITCRASQDISSYLNWYQQKPGKAPKLLIYYTSRLHSGVPSRFSGSGSGTDFTFTISSLQPEDIATYYCQQGNTLPYTFGQGTKVEIK
With B4, in the assay with human FcgRIIb [1], binding was put at a Kd of 13 nM.

B5: IL6R-PD087 (antibody)
chain 1: QVQLQESGPGLVKPSETLSLTCAVSGHSISHDHAWSWVRQPPGEGLEWIGFISYSGITNYNPSLQGRVTISRDNSKNTLYLQMNSLRAEDTAVYYCARSLARTTAMDYWGEGTLVTVSSASTKGPSVFPLAPSSKSTSGGTAALGCLVKDYFPEPVTVSWNSGALTSGVHTFPAVLQSSGLYSLSSVVTVPSSSLGTQTYICNVNHKPSNTKVDKKVEPKSCDKTHTCPPCPAPELLGMDSVFLFPPKPKDTLYISRTPEVTCVVVDVSHEDPEVKFNWYVDGVEVHNAKTKPREEQYNSTYRVVSVLTVLHQDWLNGKEYKCKVSNKALPAPIEKTISKAKGQPREPQVYTLPPSRDELTKNQVSLTCLVKGFYPSDIAVEWESNGQPENNYKTTPPVLDSDGSFFLYSKLTVDKSRWQQGNVFSCSVMHEALHYHYTQKSLSLSP
chain 2: DIQMTQSPSSLSASVGDRVTITCRASQDISSYLNWYQQKPGKAPKLLIYYTSRLHSGVPSRFSGSGSGTDFTFTISSLQPEDIATYYCQQGNTLPYTFGQGTKVEIK
As to B5, the Kd with human FcgRIIIa(V) came to 37000 nM; with human FcgRIIb [3], 2900 nM; with human FcgRIa, 52 nM; with human FcgRIIa(R), 22000 nM.

B6: IgG1-v2 (antibody)
chain 1: not shown
chain 2: DIQMTQSPSSLSASVGDRVTITCRASQDISSYLNWYQQKPGKAPKLLIYYTSRLHSGVPSRFSGSGSGTDFTFTISSLQPEDIATYYCQQGNTLPYTFGQGTKVEIK
As to B6, the Kd with human FcgRIIb [2] came to 2300 nM.

B7: F939 (antibody)
chain 1: QVQLQESGPGLVKPSETLSLTCAVSGHSISHDHAWSWVRQPPGEGLEWIGFISYSGITNYNPSLQGRVTISRDNSKNTLYLQMNSLRAEDTAVYYCARSLARTTAMDYWGEGTLVTVSSASTKGPSVFPLAPSSKSTSGGTAALGCLVKDYFPEPVTVSWNSGALTSGVHTFPAVLQSSGLYSLSSVVTVPSSSLGTQTYICNVNHKPSNTKVDKKVEPKSCDKTHTCPPCPAPELRGGPKVFLFPPKPKDTLYISRTPEVTCVVVDVSHEDPEVKFNWYVDGVEVHNAKTKPREEQYNSTYRVVSVLTVLHQDWLNGKEYKCKVSNKALPAPIEKTISKAKGQPREPQVYTLPPSRDELTKNQVSLTCLVKGFYPSDIAVEWESNGQPENNYKTTPPVLDSDGSFFLYSKLTVDKSRWQQGNVFSCSVMHEALHYHVTQKSLSLSP
chain 2: not shown
Turning to B7, the Kd in [4] worked out at 153 nM; in [5], 150 nM.

B8: IgG1-F424 (antibody)
chain 1: QVQLQESGPGLVKPSETLSLTCAVSGHSISHDHAWSWVRQPPGEGLEWIGFISYSGITNYNPSLQGRVTISRDNSKNTLYLQMNSLRAEDTAVYYCARSLARTTAMDYWGEGTLVTVSSASTKGPSVFPLAPSSKSTSGGTAALGCLVKDYFPEPVTVSWNSGALTSGVHTFPAVLQSSGLYSLSSVVTVPSSSLGTQTYICNVNHKPSNTKVDKKVEPKSCDKTHTCPPCPAPELLGGPKVFLFPPKPKDTLMISRTAEVTCVVVDVSHEDPEVKFNWYVDGVEVHNAKTKPREEQYNSTYRVVSVLTPLHQDWLNGKEYKCKVSNKALPAPIEKTISKAKGQPREPQVYTLPPSRDELTKNQVSLTCLVKGFYPSDIAVEWESNGQPENNYKTTPPVLDSDGSFFLYSKLTVDKSRWQQGNVFSCSVLHEALHYHYTQKSLSLSP
chain 2: not shown
Consider B8, for which binding in [6] was characterised by a dissociation constant (Kd) of 94 nM.

B9: F821 (antibody)
chain 1: QVQLQESGPGLVKPSETLSLTCAVSGHSISHDHAWSWVRQPPGEGLEWIGFISYSGITNYNPSLQGRVTISRDNSKNTLYLQMNSLRAEDTAVYYCARSLARTTAMDYWGEGTLVTVSSASTKGPSVFPLAPSSKSTSGGTAALGCLVKDYFPEPVTVSWNSGALTSGVHTFPAVLQSSGLYSLSSVVTVPSSSLGTQTYICNVNHKPSNTKVDKKVEPKSCDKTHTCPPCPAPELRGGPKVFLFPPKPKDTLYISRTPEVTCVVVDVSHEDPEVKFNWYVDGVEVHNAKTKPREEQYNSTYRVVSVLTVLHQDWLNGKEYKCKVSNKALPAPIEKTISKAKGQPREPQVYTLPPSRDELTKNQVSLTCLVKGFYPSDIAVEWESNGQPENNYKTTPPVLDSDGSFFLYSKLTVDKSRWQQGNVFSCSVMHEALHYHYTQKSLSLSP
chain 2: not shown
Take B9: in assay [5], the affinity, expressed as Kd, was 310 nM.

B10: IgG1-F157 (antibody)
chain 1: QVQLQESGPGLVKPSETLSLTCAVSGHSISHDHAWSWVRQPPGEGLEWIGFISYSGITNYNPSLQGRVTISRDNSKNTLYLQMNSLRAEDTAVYYCARSLARTTAMDYWGEGTLVTVSSASTKGPSVFPLAPSSKSTSGGTAALGCLVKDYFPEPVTVSWNSGALTSGVHTFPAVLQSSGLYSLSSVVTVPSSSLGTQTYICNVNHKPSNTKVDKKVEPKSCDKTHTCPPCPAPELLGGPSVFLFPPKPKDTLMISRTAEVTCVVVDVSHEDPEVKFNWYVDGVEVHNAKTKPREEQYNSTYRVVSVLTPLHQDWLNGKEYKCKVSNKALPAPIEKTISKAKGQPREPQVYTLPPSRDELTKNQVSLTCLVKGFYPSDIAVEWESNGQPENNYKTTPPVLDSDGSFFLYSKLTVDKSRWQQGNVFSCSVLHEALHYHYTQKSLSLSP
chain 2: not shown
The molecule B10 had a dissociation constant Kd in [6] of 150 nM.

B11: F1009 (antibody)
chain 1: QVQLQESGPGLVKPSETLSLTCAVSGHSISHDHAWSWVRQPPGEGLEWIGFISYSGITNYNPSLQGRVTISRDNSKNTLYLQMNSLRAEDTAVYYCARSLARTTAMDYWGEGTLVTVSSASTKGPSVFPLAPSSKSTSGGTAALGCLVKDYFPEPVTVSWNSGALTSGVHTFPAVLQSSGLYSLSSVVTVPSSSLGTQTYICNVNHKPSNTKVDKKVEPKSCDKTHTCPPCPAPELRGGPKVFLFPPKPKDVLYISRTPEVTCVVVDVSHEDPEVKFNWYVDGVEVHNAKTKPREEQYNSTYRVVSVLQPLHADWLNGKEYKCKVSNKALPAPIEKTISKAKGQPREPQVYTLPPSRDELTKNQVSLTCLVKGFYPSDIAVEWESNGQPENNYKTTPPVLDSDGSFFLYSKLTVDKSRWQQGNVFSCSVMHEALHYHVTQKSLSLSP
chain 2: not shown
Consider B11, for which the Kd in assay [4] and in assay [5] was 12 nM in each case.

(Values after patent publication US10618965 (dated 2020).)
